# Data from patent publication US10130682B2, “Methods of using pigment epithelium derived factor (PEDF) for the treatment and prevention of agent-induced gonadal or uterine toxicity” (Ramot at Tel-Aviv University Ltd., priority 2014, dated 2018).
# B1: rPEDF: Human recombinant PEDF (NM_002615.4, SEQ ID NO: 1) expressed in E. coli BL21, purified on Ni-NTA His-Bind resin (protein, UniProt P36955 20-418, looked up)
# Pigment epithelium-derived …: QNPASPPEEGSPDPDSTGALVEEEDPFFKVPVNKLAAAVSNFGYDLYRVRSSTSPTTNVLLSPLSVATALSALSLGAEQRTESIIHRALYYDLISSPDIHGTYKELLDTVTAPQKNLKSASRIVFEKKLRIKSSFVAPLEKSYGTRPRVLTGNPRLDLQEINNWVQAQMKGKLARSTKEIPDEISILLLGVAHFKGQWVTKFDSRKTSLEDFYLDEERTVRVPMMSDPKAVLRYGLDSDLSCKIAQLPLTGSMSIIFFLPLKVTQNLTLIEESLTSEFIHDIDRELKTVQAVLTVPKLKLSYEGEVTKSLQEMKLQSLFDSPDFSKITGKPIKLTQVEHRAGFEWNEDGAGTTPSPGLQPAHLTFPLDYHLNQPFIFVLRDTDTGALLFIGKILDPRGP
# modifications: His tag
# Legend:
# AKT [1] = assay: Uterine AKT phosphorylation (western blot), sub-acute tamoxifen model; format: in vivo, mouse; conditions: 7 days
# Description: (§1) DXR damage was evaluated in 7 weeks ICR female mice following treatment for superovulation with pregnant mares' serum (PMSG, 7 IU) SC on day 0 and human chorionic gonadotropin (hCG, […]) SC on day 2. On day 1, mice were administered with DXR (6 mg/kg) or saline (control) IV. Mice ovaries were retrieved on day 3 (FIG. 1A). The ability of rPEDF to overcome the destructive effect of DXR 7 weeks ICR female mice were treated with DXR (6 mg/kg) or saline (control) IV on day 0, rPEDF (2 mg/kg) or TRIS (control) was administered SC on day 1, followed by induction for superovulation with PMSG (7 IU) SC on day 4 and hCG (7 IU) SC on day 6. Mice ovaries were retrieved on day 7 (FIG. 2A). […] Mice uteri were excised at day 7. […] Mice treated with tamoxifen alone served as control. […] Mice treated with tamoxifen alone served as control.
# (§2) Samples were homogenized in cold lysis buffer (20 mM HEPES, 150 mM NaCl and 0.2% Igepal; sigma) and centrifuged at 12,000 rpm, for 15 min, at 4° C.). Proteins were separated by sodium dodecyl sulfate polyacrylamide gel electrophoresis (SDS-PAGE; 10%; Bio-Rad, Israel). […] Approximate molecular masses were determined by comparison with the migration of pre-stained protein standards (Bio-Rad). […] Intensity of the protein bands was quantified by Image J […] (NIH).
# GPX-1 = GPX-1 mRNA level (qPCR) in LH-15 cells under H2O2; format: cell-based, rat; conditions: rPEDF 1 nM added to H2O2
# Description: (§3) Rat granulosa cell line LH-15 [Suh et al. J Cell Biol (1992) 119: 439-450] was cultured in hormone-free DMEM-F12 medium, supplemented with penicillin (100 IU/ml; Biological Industries), streptomycin ([…]; Biological Industries) and 10% charcoal-stripped fetal bovine serum (CS-FBS; Invitrogen) (culture medium), as described previously (Breckwoldt et al. 1996, Sasson & Amsterdam 2002). Cells were serum-starved for 16 hours (0.1% CS-FBS) prior to and during recombinant PEDF (rPEDF) stimulation or incubated in 2% CS-FBS during H2O2 stimulation.
# (§4) Total RNA was isolated from various tissues (ovaries, eyes) or from granulosa cells, using Trizol reagent (Invitrogen) according to manufacturer's instructions, and quantified with the Nano-Drop spectrophotometer (ND-1000; Thermo Scientific). First-strand cDNA was produced by RT (Maxima™ Reverse transcriptase, Thermo Scientific) from a total of 1 μg RNA, using oligo-dt primers (Thermo Scientific). DNA was amplified using 1 μl RT reaction and 50 pmol gene-specific primers in ReadyMix™ mixture (Sigma). […] Changes in the level of expression of mRNA were detected by SYBR green reagent (SYBR® Green PCR Master Mix, ABI, Carlsbad, Calif., USA) along with 15 ng cDNA and specific primers, on a StepOnePlus Real-Time PCR System (Applied Biosystems, Foster City, Calif., USA).
# [2] = system: ovariectomized (OVX) ICR mice; assay: Uterine weight, sub-acute tamoxifen model in ovariectomized mice; format: in vivo, mouse; conditions: rPEDF 10 mg/kg SC with tamoxifen 2.5 μg/mouse daily for 7 days
# Description: as §1
# (§5) At the end of each experiment, uteri were isolated, excised and weighed.
# VEGF [3] = assay: Uterine VEGF protein (western blot), sub-acute tamoxifen model; format: in vivo, mouse; conditions: rPEDF 10 mg/kg SC with tamoxifen 2.5 μg/mouse daily for 7 days
# Description: as §1, §2
# [4] = system: progesterone receptor (PR); assay: Uterine PR mRNA (qPCR), prolonged tamoxifen model; format: in vivo, mouse; conditions: tamoxifen models taken together
# Description: DXR damage was evaluated in 7 weeks ICR female mice following treatment for superovulation with pregnant mares' serum (PMSG, 7 IU) SC on day 0 and human chorionic gonadotropin (hCG, […]) SC on day 2. On day 1, mice were administered with DXR (6 mg/kg) or saline (control) IV. Mice ovaries were retrieved on day 3 (FIG. 1A). The ability of rPEDF to overcome the destructive effect of DXR 7 weeks ICR female mice were treated with DXR (6 mg/kg) or saline (control) IV on day 0, rPEDF (2 mg/kg) or TRIS (control) was administered SC on day 1, followed by induction for superovulation with PMSG (7 IU) SC on day 4 and hCG (7 IU) SC on day 6. Mice ovaries were retrieved on day 7 (FIG. 2A). […] Mice uteri were excised at day 7. […] Mice treated with tamoxifen alone served as control. […]
# as §4, with “First-strand cDNA was produced by RT (Maxima™ Reverse transcriptase, Thermo Scientific) from a total of 1 μg RNA, using oligo-dt primers (Thermo Scientific).” left out
# ERα [5] = assay: Uterine ERα protein (western blot), prolonged tamoxifen model; format: in vivo, mouse
# Description: as §1, §2
# AKT [6] = assay: AKT phosphorylation (western blot) in serum-starved LH-15 cells; format: cell-based, rat; conditions: 1 nM rPEDF, various durations, P<0.05
# Description: as §3
# (§6) Samples were homogenized in cold lysis buffer (20 mM HEPES, 150 mM NaCl and 0.2% Igepal; sigma) and centrifuged at 12,000 rpm, for 15 min, at 4° C.). Proteins were separated by sodium dodecyl sulfate polyacrylamide gel electrophoresis (SDS-PAGE; 10%; Bio-Rad, Israel). Separated proteins were transferred onto nitrocellulose membranes (Whatman GmbH, Germany) in a mini tank transfer unit (TE 22, Amersham, UK). Approximate molecular masses were determined by comparison with the migration of pre-stained protein standards (Bio-Rad). Blots were blocked for 1 hour in TBST (10 mM Tris-HCl, pH=8.0, 150 mM NaCl, 0.05% Tween 20) containing 5% skim-milk (Alba, N.Y., USA) followed by an over-night incubation at 4° C. with primary antibodies. […] Intensity of the protein bands was quantified by Image J […] (NIH).
# ERβ = assay: Uterine ERβ mRNA (qPCR), prolonged tamoxifen model; format: in vivo, mouse; conditions: tamoxifen models taken together
# BAX = BAX protein level (western blot) in LH-15 cells under H2O2; format: cell-based, rat; conditions: exogenous rPEDF added to H2O2; P<0.05
# Description: as §3, §6
# ERα [7] = assay: Uterine ERα mRNA (qPCR), prolonged tamoxifen model; format: in vivo, mouse; conditions: prolonged tamoxifen model
# ICR female mice = assay: Number of ovulated oocytes in DXR-treated mice given rPEDF; format: in vivo, mouse; conditions: rPEDF 2 mg/kg SC the day after DXR 6 mg/kg IV; vs DXR alone
# Description: FIG. 2A is an illustration depicting the experimental setting: 7 weeks ICR female mice (n=4/group) were treated with DXR or saline (control), at the day after mice were administrated with rPEDF or TRIS (control). On the fourth day of the experiment mice were induced for superovulation with the standard PMSG/hCG protocol [Ben-Aharon et al. Reproductive Biology and Endocrinology: RB&E (2010) 8: 20]. Mice were sacrificed 16-17 hours after hCG administration.
# DXR damage was evaluated in 7 weeks ICR female mice following treatment for superovulation with pregnant mares' serum (PMSG, 7 IU) SC on day 0 and human chorionic gonadotropin (hCG, […]) SC on day 2. On day 1, mice were administered with DXR (6 mg/kg) or saline (control) IV. Mice ovaries were retrieved on day 3 (FIG. 1A). The ability of rPEDF to overcome the destructive effect of DXR 7 weeks ICR female mice were treated with DXR (6 mg/kg) or saline (control) IV on day 0, rPEDF (2 mg/kg) or TRIS (control) was administered SC on day 1, followed by induction for superovulation with PMSG (7 IU) SC on day 4 and hCG (7 IU) SC on day 6. […]
# cumulus-enclosed oocytes were isolated from the oviductal ampullae into M2 medium (Sigma), 16-18 hrs after hCG administration. Cumulus cells were removed by a brief exposure to 400 IU/ml hyaluronidase (Sigma) and the number of ovulated oocytes was counted under binocular.
# CD34 = CD34 immunohistochemical staining of uterine blood vessels, prolonged tamoxifen model; format: in vivo, mouse; conditions: prolonged treatment
# Description: as §1
# Paraffin-embedded sections were deparaffinized, microwave heated while being subjected to an antigen retrieval agent (H-3300, Vector Laboratories Inc., Burlingame, Calif., USA), cooled on ice to room temperature, rinsed in PBS, incubated for 1 hour with PBSTg (0.2% Tween and gelatin in PBS), washed with PBS, blocked for 10 minutes in blocking solution (Cell Marque Corporation, Calif., USA) and incubated overnight with anti PNPLA2 or anti-CD34 primary antibodies. […]
# SOD-1 = SOD-1 mRNA level (qPCR) in LH-15 cells under H2O2; format: cell-based, rat; conditions: rPEDF 1 nM added to H2O2
# Description: as §3, §4
# JNK = assay: Uterine JNK phosphorylation (western blot), sub-acute tamoxifen model; format: in vivo, mouse; conditions: 7 days
# Description: as §1, §2
# VEGF [8] = assay: Uterine VEGF protein (western blot), prolonged tamoxifen model; format: in vivo, mouse; conditions: rPEDF 2 mg/kg SC once every 3 days from day 8 of one-month tamoxifen treatment
# Description: as §1, §2
# ERα [9] = assay: Uterine ERα mRNA (qPCR), sub-acute tamoxifen model; format: in vivo, mouse; conditions: sub-acute tamoxifen model
# OVX ICR mice = assay: Uterine weight, prolonged tamoxifen model in ovariectomized mice; format: in vivo, mouse
# Description: as §1, §5
# LH-15 cells = assay: MTT cell viability assay in LH-15 granulosa cells under H2O2; format: cell-based, rat; conditions: rPEDF 1 nM or 5 nM with 100 or 200 μM H2O2, 24 hours
# Description: as §3
# Equal amount of LH-15 cells were seeded onto 6-well plates to a final volume of 500 μl. Following treatments, each well was incubated for 30 minutes with 10 μl of MTT [3-(4, 5-Dimethylthiazol-2-yl)-2, 5-diphenyltetrazolium bromide; 5 mg/ml] followed by an additional 2-4 hours incubation period at 37° C. The reaction was terminated by addition of 110 μl HCl (0.07 M in isopropanol) and OD 560 nm was measured by the SpectraMax 190 microplate reader ([…], Eugene, Oreg., USA).
molecule,measurement,setting,value
B1,"uterine AKT phosphorylation, tamoxifen+rPEDF vs tamoxifen alone",AKT [1],significant decrease in phosphorylation of AKT
same,GPX-1 mRNA expression under H2O2,GPX-1,elevated their expression
same,"uterine weight, tamoxifen+rPEDF vs tamoxifen alone",[2],significant decrease
same,"uterine VEGF protein levels, tamoxifen+rPEDF vs tamoxifen alone",VEGF [3],significant decrease
same,"PR expression in uteri, rPEDF with tamoxifen",[4],without modifying the expression
same,"ERα protein expression in uteri, rPEDF with tamoxifen",ERα [5],down-regulate the expression of ERα protein
same,phosphorylation of AKT,AKT [6],"induced prolonged, time-dependent phosphorylation of AKT starting at 5 minutes"
same,"ERβ expression in uteri, rPEDF with tamoxifen",ERβ,without modifying the expression
same,BAX expression under H2O2,BAX,decreased its expression
same,"ERα mRNA levels in uteri, rPEDF with tamoxifen",ERα [7],able to reverse the prolonged tamoxifen-induced reduction in ERα mRNA levels
same,number of ovulated oocytes,ICR female mice,significantly (P<0.05) decreased DXR-induced reduction in number of ovulated oocytes
same,"CD34 staining in uteri, tamoxifen+rPEDF vs tamoxifen alone",CD34,decrease in CD34 staining
same,SOD-1 mRNA expression under H2O2,SOD-1,elevated their expression
same,"uterine JNK phosphorylation, tamoxifen+rPEDF vs tamoxifen alone",JNK,increase in phosphorylation of JNK
same,"uterine VEGF protein expression, tamoxifen+rPEDF vs tamoxifen alone",VEGF [8],significantly decreased
same,"ERα mRNA levels in uteri, rPEDF with tamoxifen",ERα [9],able to attenuate the sub-acute tamoxifen-induced reduction in ERα mRNA levels
same,effectiveness of rPEDF treatment by timing of administration,"OVX ICR mice; preliminary analysis, data not shown, prolonged tamoxifen model",more effective when administered following a short period of initiation with tamoxifen
same,"uterine weights, tamoxifen+rPEDF vs tamoxifen alone",OVX ICR mice; rPEDF 2 mg/kg SC once every 3 days from day 8 of one-month tamoxifen treatment,"down-regulated in mice treated with tamoxifen+rPEDF, though not statistically significant (p=0.2)"
same,cells viability (MTT) under H2O2,LH-15 cells,significantly (P<0.05) decreased H2O2-induced reduction in cells viability
